Reference: US20090304719A1
Each block holds one binder with its values, some of them ahead of it. Where no end group is shown, it is not given here. CPX display scaffold = circularly permuted E. coli OmpX display scaffold

Tests used:
anti-VCAM-1 scFv = test: FACS, peptide displayed on bacteria, 50 nM biotinylated anti-VCAM scFv then 1 nM anti-biotin PE; background without scFv printed as 142
VEGF [1] = target: VEGF (UniProt P15692); test: FACS, clone displayed on E. coli (CPX), labeled VEGF; with MMP-2 against without (FIG. 23)
VEGF [2] = target: VEGF (UniProt P15692); test: FACS, clone displayed on E. coli (CPX), labeled VEGF; MMP-2 treated against untreated (FIG. 25)

VEGF, sequence (P15692 other isoform, or with tags, fused parts or gaps limits assumed): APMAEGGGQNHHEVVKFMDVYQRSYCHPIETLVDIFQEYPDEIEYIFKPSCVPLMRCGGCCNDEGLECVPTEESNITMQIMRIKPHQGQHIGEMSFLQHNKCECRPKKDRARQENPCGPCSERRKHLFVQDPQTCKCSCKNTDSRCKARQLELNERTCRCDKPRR

average fluorescence value (anti-VCAM-1 scFv): 2620
B1: BBB-08 (peptide)
peptide: GVVLTTMNFWDWITV

fold increase in fluorescence in the presence of MMP-2 (VEGF [1]): 11.8 fold | fold increase in fluorescence after enzyme cleavage (VEGF [2]): 10 fold
B2: ABP library clone 2-3B-5 (designed binder, not shown: large carriers; small tags and cut ends)
chain: GQSGQCEYAFGPLGLAGGGSGNFGYGKWEWDYGKWLEKVGGC-{CPX display scaffold}
modifications: not fully specified; cysteine pairing not given here
